Source: the supplement of paper PMC9112550, “Optimization of the antimicrobial peptide Bac7 by deep mutational scanning” (BMC Biology, 2022)

Each sequence was assayed on Escherichia coli TOP10 (assay: shrunken log2 fold change of peptide-encoding DNA abundance (4.5 h post-induction vs induction); higher = less antimicrobial activity (less host growth inhibition)). Conditions: time post-induction: 4.5 h; library: site-saturation at positions 5, 18, 19, 20.
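Further: peptides expressed intracellularly from a pBAD plasmid library in pooled LB shake-flask culture, induced with 0.3% L-arabinose, DNA abundance read by NGS, three biological replicates, DESeq2 with apeglm shrinkage.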

| Sequence | shrunken log2 fold change |
| --- | --- |
| RRIRPRPPRLPRPRPRPTYIPRP | -0.0167 |
| RRIRRRPPRLPRPRPRPVCGPRP | 0.75 |
| RRIRIRPPRLPRPRPRPVTYPRP | -0.275 |
| RRIRLRPPRLPRPRPRPHLVPRP | 0.0694 |
| RRIRYRPPRLPRPRPRPVGKPRP | -1.51 |
| RRIRDRPPRLPRPRPRPKAIPRP | -0.0326 |
| RRIRNRPPRLPRPRPRPTGVPRP | 0.147 |
| RRIRNRPPRLPRPRPRPESTPRP | -0.0329 |
| RRIRFRPPRLPRPRPRPDGGPRP | -0.537 |
| RRIRCRPPRLPRPRPRPVIGPRP | -0.18 |
| RRIRGRPPRLPRPRPRPSTVPRP | 0.164 |
| RRIRYRPPRLPRPRPRPQYCPRP | -0.361 |
| RRIRWRPPRLPRPRPRPDSMPRP | -0.0126 |
| RRIRDRPPRLPRPRPRPCPKPRP | -0.048 |
| RRIRVRPPRLPRPRPRPHETPRP | -0.0244 |
| RRIRLRPPRLPRPRPRPIHRPRP | -0.163 |
| RRIRVRPPRLPRPRPRPTSTPRP | -0.103 |
| RRIRRRPPRLPRPRPRPIRMPRP | 0.302 |
| RRIRCRPPRLPRPRPRPPQCPRP | 0.182 |
| RRIRQRPPRLPRPRPRPKSDPRP | -0.2 |
| RRIRRRPPRLPRPRPRPYEFPRP | -0.187 |
| RRIRHRPPRLPRPRPRPPEIPRP | 0.0979 |
| RRIRTRPPRLPRPRPRPFGHPRP | -0.145 |
| RRIRQRPPRLPRPRPRPNSQPRP | 0.229 |
| RRIRPRPPRLPRPRPRPAMVPRP | 0.844 |

| Sequence | shrunken log2 fold change |
| --- | --- |
| RRIRMRPPRLPRPRPRPWATPRP | 0.194 |
| RRIRSRPPRLPRPRPRPHYRPRP | 0.0349 |
| RRIRGRPPRLPRPRPRPTEVPRP | 0.311 |
| RRIRPRPPRLPRPRPRPRGHPRP | 0.0129 |
| RRIRKRPPRLPRPRPRPTLPPRP | 0.878 |
| RRIRPRPPRLPRPRPRPNAGPRP | 0.0847 |
| RRIRKRPPRLPRPRPRPPFMPRP | 0.517 |
| RRIRERPPRLPRPRPRPGRCPRP | 0.0675 |
| RRIRNRPPRLPRPRPRPMVAPRP | 0.0624 |
| RRIRLRPPRLPRPRPRPITQPRP | -0.264 |
| RRIRSRPPRLPRPRPRPNMRPRP | 0.43 |
| RRIRGRPPRLPRPRPRPDRRPRP | -0.12 |
| RRIRFRPPRLPRPRPRPCLFPRP | -0.264 |
| RRIRKRPPRLPRPRPRPCERPRP | 0.019 |
| RRIRSRPPRLPRPRPRPKGRPRP | 0.0764 |
| RRIRNRPPRLPRPRPRPFMIPRP | -0.294 |
| RRIRYRPPRLPRPRPRPPLIPRP | -0.185 |
| RRIRKRPPRLPRPRPRPEVLPRP | 1.57 |
| RRIRSRPPRLPRPRPRPLDYPRP | -0.194 |
| RRIRGRPPRLPRPRPRPTVWPRP | 1.32 |
| RRIRTRPPRLPRPRPRPYYTPRP | -0.336 |
| RRIRTRPPRLPRPRPRPGCEPRP | -0.117 |
| RRIRFRPPRLPRPRPRPQWAPRP | 0.136 |
| RRIRRRPPRLPRPRPRPNCEPRP | 0.227 |
| RRIRWRPPRLPRPRPRPLISPRP | -0.0451 |

| Sequence | shrunken log2 fold change |
| --- | --- |
| RRIRPRPPRLPRPRPRPRQMPRP | 0.184 |
| RRIRWRPPRLPRPRPRPYDVPRP | -0.0559 |
| RRIRTRPPRLPRPRPRPMIIPRP | -0.0854 |
| RRIRPRPPRLPRPRPRPTIPPRP | -0.361 |
| RRIRARPPRLPRPRPRPTGNPRP | 0.186 |
| RRIRWRPPRLPRPRPRPEYTPRP | 0.166 |
| RRIRCRPPRLPRPRPRPKEWPRP | 0.0878 |
| RRIRERPPRLPRPRPRPKLWPRP | 0.582 |
| RRIRARPPRLPRPRPRPYIRPRP | -0.406 |
| RRIRQRPPRLPRPRPRPGGWPRP | 0.45 |
| RRIRKRPPRLPRPRPRPPHGPRP | 0.634 |
| RRIRGRPPRLPRPRPRPRFGPRP | 0.662 |
| RRIRHRPPRLPRPRPRPPFFPRP | 0.168 |
| RRIRWRPPRLPRPRPRPCIEPRP | -0.0674 |
| RRIRLRPPRLPRPRPRPNQNPRP | -0.276 |
| RRIRQRPPRLPRPRPRPVETPRP | -0.00674 |
| RRIRRRPPRLPRPRPRPHKIPRP | -0.182 |
| RRIRGRPPRLPRPRPRPWIGPRP | 0.0233 |
| RRIRRRPPRLPRPRPRPYNFPRP | -0.642 |
| RRIRERPPRLPRPRPRPEHCPRP | -0.014 |
| RRIRGRPPRLPRPRPRPMEIPRP | -0.0753 |
| RRIRARPPRLPRPRPRPMLAPRP | 0.881 |
| RRIRQRPPRLPRPRPRPNYVPRP | -0.426 |
| RRIRVRPPRLPRPRPRPEINPRP | -0.00259 |
| RRIRRRPPRLPRPRPRPLEAPRP | 0.404 |

| Sequence | shrunken log2 fold change |
| --- | --- |
| RRIRKRPPRLPRPRPRPIYPPRP | -0.0542 |
| RRIRIRPPRLPRPRPRPLQWPRP | -0.013 |
| RRIRMRPPRLPRPRPRPKKAPRP | 0.0459 |
| RRIRARPPRLPRPRPRPWYFPRP | -0.332 |
| RRIRKRPPRLPRPRPRPMHFPRP | 0.0573 |
| RRIRGRPPRLPRPRPRPDQCPRP | 0.196 |
| RRIRCRPPRLPRPRPRPNNDPRP | -0.643 |
| RRIRCRPPRLPRPRPRPNAMPRP | 0.0678 |
| RRIRGRPPRLPRPRPRPPIVPRP | 0.0957 |
| RRIRKRPPRLPRPRPRPPRHPRP | 1.04 |
| RRIRPRPPRLPRPRPRPHTEPRP | 0.0462 |
| RRIRYRPPRLPRPRPRPNKGPRP | -0.618 |
| RRIRKRPPRLPRPRPRPRVTPRP | 0.138 |
| RRIRGRPPRLPRPRPRPKANPRP | 0.836 |
| RRIRKRPPRLPRPRPRPFFAPRP | 0.645 |
| RRIRDRPPRLPRPRPRPQCMPRP | -0.0894 |
| RRIRTRPPRLPRPRPRPYYPPRP | -0.335 |
| RRIRHRPPRLPRPRPRPSVLPRP | -0.242 |
| RRIRPRPPRLPRPRPRPRHVPRP | 0.0494 |
| RRIRDRPPRLPRPRPRPETNPRP | 0.443 |
| RRIRGRPPRLPRPRPRPRFNPRP | 0.0824 |
| RRIRIRPPRLPRPRPRPNNDPRP | -0.967 |
| RRIRERPPRLPRPRPRPEWDPRP | -0.105 |
| RRIRVRPPRLPRPRPRPIPGPRP | -0.0572 |
| RRIRMRPPRLPRPRPRPNTGPRP | 0.151 |

| Sequence | shrunken log2 fold change |
| --- | --- |
| RRIRSRPPRLPRPRPRPRHYPRP | -0.172 |
| RRIRRRPPRLPRPRPRPCNYPRP | 0.159 |
| RRIRVRPPRLPRPRPRPDYGPRP | -0.133 |
| RRIRSRPPRLPRPRPRPAVSPRP | 0.105 |
| RRIRKRPPRLPRPRPRPTSMPRP | 0.508 |
| RRIRFRPPRLPRPRPRPKPMPRP | 0.521 |
| RRIRQRPPRLPRPRPRPCDNPRP | -0.269 |
| RRIRMRPPRLPRPRPRPHERPRP | 1.04 |
| RRIRWRPPRLPRPRPRPCVWPRP | 0.738 |
| RRIRLRPPRLPRPRPRPWSCPRP | -0.136 |
| RRIRWRPPRLPRPRPRPNRIPRP | -0.115 |
| RRIRARPPRLPRPRPRPPLIPRP | 0.299 |
| RRIRTRPPRLPRPRPRPPSFPRP | 0.264 |
| RRIRWRPPRLPRPRPRPNDCPRP | -0.0115 |
| RRIRDRPPRLPRPRPRPASAPRP | 0.616 |
| RRIRWRPPRLPRPRPRPRACPRP | 0.468 |
| RRIRCRPPRLPRPRPRPQDKPRP | -0.579 |
| RRIRIRPPRLPRPRPRPCADPRP | -0.289 |
| RRIRYRPPRLPRPRPRPQGMPRP | -0.0114 |
| RRIRDRPPRLPRPRPRPPWVPRP | -0.0472 |
| RRIRSRPPRLPRPRPRPFAFPRP | -0.0807 |
| RRIRQRPPRLPRPRPRPDQFPRP | 0.133 |
| RRIRRRPPRLPRPRPRPYVFPRP | -0.623 |
| RRIRNRPPRLPRPRPRPYCRPRP | -0.982 |
| RRIRTRPPRLPRPRPRPSLVPRP | 0.0852 |

| Sequence | shrunken log2 fold change |
| --- | --- |
| RRIRFRPPRLPRPRPRPDWEPRP | -0.169 |
| RRIRGRPPRLPRPRPRPLIEPRP | 0.801 |
| RRIRFRPPRLPRPRPRPIEMPRP | -0.245 |
| RRIRSRPPRLPRPRPRPFGRPRP | -0.0701 |
| RRIRTRPPRLPRPRPRPMSLPRP | -0.147 |
| RRIRERPPRLPRPRPRPLGPPRP | 0.099 |
| RRIRFRPPRLPRPRPRPADTPRP | -0.109 |
| RRIRKRPPRLPRPRPRPYILPRP | -0.0873 |
| RRIRLRPPRLPRPRPRPQQAPRP | -0.0623 |
| RRIRWRPPRLPRPRPRPFSDPRP | -0.0111 |
| RRIRPRPPRLPRPRPRPSPKPRP | 0.218 |
| RRIRTRPPRLPRPRPRPFKWPRP | -0.121 |
| RRIRYRPPRLPRPRPRPIVEPRP | 0.00721 |
| RRIRERPPRLPRPRPRPMGRPRP | 0.0998 |
| RRIRQRPPRLPRPRPRPLFLPRP | -0.65 |
| RRIRSRPPRLPRPRPRPFTAPRP | -0.492 |
| RRIRYRPPRLPRPRPRPIQGPRP | -0.0804 |
| RRIRDRPPRLPRPRPRPARKPRP | 0.574 |
| RRIRVRPPRLPRPRPRPRYLPRP | -0.184 |
| RRIRKRPPRLPRPRPRPKMIPRP | -0.0764 |
| RRIRNRPPRLPRPRPRPSYIPRP | -0.637 |
| RRIRYRPPRLPRPRPRPYLQPRP | -1.9 |
| RRIRIRPPRLPRPRPRPHSSPRP | -0.448 |
| RRIRTRPPRLPRPRPRPACQPRP | 0.0771 |
| RRIRERPPRLPRPRPRPNIPPRP | -0.396 |
